For orientation: Kd means the constant that tells how readily two partners part at equilibrium. Read a high Kd as a looser complex. By koff is commonly meant the first-order rate constant of dissociation. One may read the kon as a measure of how fast the partners come together.

The text below walks through data of article PMC7948472.

One assay concerns the target F9, C9, E6, and D6. As to the kind of experiment: SPR; Biacore T200; each Fab immobilised on a CM5 chip by amine coupling; increasing concentrations of free peptide injected; running buffer PBS with 0.005% Tween 20; global fit, steady-state analysis where dissociation was fast.
The target of assay [1] is Fab E10 (rabbit). As to the kind of experiment: SPR; Biacore T200; each Fab immobilised on a CM5 chip by amine coupling; peptides injected at increasing concentrations; running buffer PBS with 0.005% Tween 20; global fitting of the curves, or steady-state analysis where kinetic parameters could not be determined (fast dissociation, low affinity).
Assay [2] deals with Fab D6 (rabbit). The assay is described as above.
Assay [3] concerns the target Fab C9 (rabbit). The assay is described as above.
In assay [4] the target is Fab E10 (rabbit). The assay is described as above. The source holds these as a separate data set.
The target in assay [5] is Fab D6 (rabbit). Described as above. This is another data set of the same source.
Assay [6] concerns the target Fab C9 (rabbit). The description is as above. The source holds these as a separate data set.
A further assay addresses E6 Fab (rabbit). The assay is described as follows: SPR; Biacore T200; each Fab immobilised on a CM5 chip by amine coupling; increasing concentrations of free peptide injected; running buffer PBS with 0.005% Tween 20; global fit, steady-state analysis where dissociation was fast.
The target of another assay is D6 Fab (rabbit). The description is as above.
Another assay addresses C9 Fab (rabbit). Described as above.
A further assay concerns the target F9 Fab (rabbit). The assay is described as above.
The target in a further assay is Fab E6 (rabbit). The assay is described as follows: SPR; Biacore T200; each Fab immobilised on a CM5 chip by amine coupling; peptides injected at increasing concentrations; running buffer PBS with 0.005% Tween 20; global fitting of the curves, or steady-state analysis where kinetic parameters could not be determined (fast dissociation, low affinity). (In general: In SPR one partner is held on a chip, and binding of the other changes the refractive index at the surface.)

The target in the next assay is Fab F9 (rabbit). The description is as above.

Read-outs that look alike come from different tables or passages of the source. Where no end group is shown, it is not given here. Me3 = trimethyl-lysine

Fab C9 (rabbit), sequence (heavy, as listed by the source, chain 1 of 2): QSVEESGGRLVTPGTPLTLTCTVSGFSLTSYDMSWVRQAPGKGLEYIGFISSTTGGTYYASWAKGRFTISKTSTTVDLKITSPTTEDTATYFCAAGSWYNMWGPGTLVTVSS
Fab C9 (rabbit), sequence (light, as listed by the source, chain 2 of 2): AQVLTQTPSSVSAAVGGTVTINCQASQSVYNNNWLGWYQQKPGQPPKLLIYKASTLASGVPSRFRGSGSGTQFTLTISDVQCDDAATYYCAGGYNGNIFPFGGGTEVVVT
Fab D6 (rabbit), sequence (heavy, as listed by the source, chain 1 of 2): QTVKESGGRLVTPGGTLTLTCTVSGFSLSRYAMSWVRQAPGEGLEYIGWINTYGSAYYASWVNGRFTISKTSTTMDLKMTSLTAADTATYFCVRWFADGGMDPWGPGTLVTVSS
Fab D6 (rabbit), sequence (light, as listed by the source, chain 2 of 2): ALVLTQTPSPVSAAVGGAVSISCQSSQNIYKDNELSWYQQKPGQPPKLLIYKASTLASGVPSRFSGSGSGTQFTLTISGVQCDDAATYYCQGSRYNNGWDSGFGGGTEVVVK
Fab F9 (rabbit), sequence (heavy, as listed by the source, chain 1 of 2): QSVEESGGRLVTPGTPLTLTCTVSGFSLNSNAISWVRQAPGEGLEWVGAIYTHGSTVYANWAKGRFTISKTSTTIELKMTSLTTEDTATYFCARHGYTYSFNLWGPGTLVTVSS
Fab F9 (rabbit), sequence (light, as listed by the source, chain 2 of 2): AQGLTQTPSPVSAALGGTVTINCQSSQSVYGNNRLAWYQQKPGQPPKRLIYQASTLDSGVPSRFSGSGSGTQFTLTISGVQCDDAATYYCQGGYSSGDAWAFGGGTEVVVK
Fab E6 (rabbit), sequence (heavy, as listed by the source, chain 1 of 2): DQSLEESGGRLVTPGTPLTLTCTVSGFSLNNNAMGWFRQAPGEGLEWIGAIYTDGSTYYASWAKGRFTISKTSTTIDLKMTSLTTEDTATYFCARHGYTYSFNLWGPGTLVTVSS
Fab E6 (rabbit), sequence (light, as listed by the source, chain 2 of 2): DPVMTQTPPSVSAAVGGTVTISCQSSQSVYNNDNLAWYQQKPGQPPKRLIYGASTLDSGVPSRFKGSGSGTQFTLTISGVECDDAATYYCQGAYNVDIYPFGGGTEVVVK

In the case of NPIFEKFGKGGTYP [MAP3K2 peptide, …], the Kd in the assay with F9, C9, E6, and D6 is 0.3 µM; with Fab E10 (rabbit) [1] it was 36 µM; in the assay with Fab D6 (rabbit) [2] it was 180 µM; with Fab C9 (rabbit) [3], 690 µM; with Fab E10 (rabbit) [4], 40 µM; with Fab D6 (rabbit) [5] it was 140 µM. Moreover, the Kd in the assay with Fab C9 (rabbit) [6] turned out to be 440 µM.
As to NPIFEKFGK(Me3)GGTYP-NH2 [Methylated MAP3K2 peptide in which the C terminus was amidated], the values for the Kd in the assay with Fab D6 (rabbit) [5] and with Fab C9 (rabbit) [6] were 0.0591 µM and 0.0111 µM, respectively.
As for NPIFEKFGK(Me3)GGTYP [Methylated MAP3K2 peptide, …(me3)GGTYP], the Kd with E6 Fab (rabbit) is 0.0009 µM; with D6 Fab (rabbit), 0.054 µM; with C9 Fab (rabbit) it was 0.014 µM; with F9 Fab (rabbit), 0.3 µM; with Fab E10 (rabbit) [1], 39 µM; in the assay with Fab E10 (rabbit) [4], 37 µM. The molecule further came in with a fold difference in association rate constant against F9 with E6 Fab (rabbit) greater than 100 fold. The dissociation rate constant (koff) in the assay with Fab E6 (rabbit) turned out to be 0.0029 s⁻¹; with Fab D6 (rabbit) [5], 0.096 s⁻¹; in the assay with Fab F9 (rabbit), 0.098 s⁻¹; with Fab C9 (rabbit) [6], 0.006 s⁻¹. Moreover, the kon was determined as 3.4e+06 M⁻¹ s⁻¹ in the assay with Fab E6 (rabbit), 1.9e+06 M⁻¹ s⁻¹ with Fab D6 (rabbit) [5], 330000 M⁻¹ s⁻¹ in the assay with Fab F9 (rabbit) and 480000 M⁻¹ s⁻¹ with Fab C9 (rabbit) [6].
